The target of the experiment is bHLH protein EGL3 from Arabidopsis (Arabidopsis) (UniProt Q9CAD0). As to the kind of experiment: cell-based or functional assay.
Sequence of UniProt Q9CAD0 (Q9CAD0 whole entry): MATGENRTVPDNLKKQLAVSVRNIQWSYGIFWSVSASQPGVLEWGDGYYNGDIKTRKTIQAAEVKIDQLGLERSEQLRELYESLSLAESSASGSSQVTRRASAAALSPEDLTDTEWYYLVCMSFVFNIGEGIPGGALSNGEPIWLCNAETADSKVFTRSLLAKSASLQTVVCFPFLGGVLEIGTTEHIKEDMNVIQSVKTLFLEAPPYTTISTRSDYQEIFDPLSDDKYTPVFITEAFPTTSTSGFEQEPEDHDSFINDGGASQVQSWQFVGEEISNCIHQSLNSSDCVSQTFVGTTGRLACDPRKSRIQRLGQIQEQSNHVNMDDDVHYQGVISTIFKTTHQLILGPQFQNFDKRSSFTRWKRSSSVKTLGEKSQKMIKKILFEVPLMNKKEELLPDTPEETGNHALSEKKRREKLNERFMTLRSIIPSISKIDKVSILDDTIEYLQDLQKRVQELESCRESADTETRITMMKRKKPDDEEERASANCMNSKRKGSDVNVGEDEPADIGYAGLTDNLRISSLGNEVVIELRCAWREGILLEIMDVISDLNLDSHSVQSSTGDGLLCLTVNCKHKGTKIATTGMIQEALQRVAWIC

Regarding VvMYBPA1, the induction of the VvLDOX promoter, dual-luciferase transient assay in grape cells (fold over control without MYB factor) is 125 fold.

Values taken from US20100064383A1.
